Experimental findings from US20210145944 are described below.

One series has as its target Tau-441 (P301L) (UniProt P10636).

Chain of Tau-441 (P301L) (P10636 other isoform, or with tags, fused parts or gaps P301L): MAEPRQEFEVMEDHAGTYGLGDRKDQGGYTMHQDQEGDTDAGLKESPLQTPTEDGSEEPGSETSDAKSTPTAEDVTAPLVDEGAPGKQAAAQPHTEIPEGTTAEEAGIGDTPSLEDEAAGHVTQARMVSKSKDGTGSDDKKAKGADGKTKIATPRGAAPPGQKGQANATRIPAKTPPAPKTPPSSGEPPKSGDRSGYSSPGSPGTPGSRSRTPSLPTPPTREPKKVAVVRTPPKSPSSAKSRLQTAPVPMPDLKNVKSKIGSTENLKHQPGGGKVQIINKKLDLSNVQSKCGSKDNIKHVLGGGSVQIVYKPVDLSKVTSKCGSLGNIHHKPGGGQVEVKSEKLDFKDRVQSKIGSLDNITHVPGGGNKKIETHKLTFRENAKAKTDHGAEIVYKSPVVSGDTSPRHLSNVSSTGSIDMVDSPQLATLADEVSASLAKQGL

B1: cathepsin G (enzyme, UniProt P08311 21-244, looked up, species assumed)
Cathepsin G: IIGGRESRPHSRPYMAYLQIQSPAGQSRCGGFLVREDFVLTAAHCWGSNINVTLGAHNIQRRENTQQHITARRAIRHPQYNQRTIQNDIMLLQLSRRVRRNRNVNPVALPRAQEGLRPGTLCTVAGWGRVSMRRGTDTLREVQLRVQRDRQCLRIFGSYDPRRQICVGDRRERKAAFKGDSGGPLLCNNVAHGIVSYGKSSGVPPEVFTRVSSFLPWIRTTMRS
modifications: immobilized
Turning to B1, in the series on Bodipy-labelled casein, the “casein digestion by resin-immobilized protease, fluorescence (RFU) at 5 and 60 min” value was “bar at 5 min about 2.3x10^7 RFU, bar at 60 min about 5.3x10^7 RFU; highest of the three groups; no control bar drawn”; the “casein digestion, fluorescence (RFU) of Bodipy-labelled casein after 1 h against protease concentration in solution” value was “near 0 up to about 0.1 ug/ml, rises to about 3.4x10^7 RFU; the last two points (about 50 and 100 ug/ml) are at the same height”; the “casein-digestion activity, immobilized protease, fluorescence” value was “exhibited casein-digestion activity at 5 minute and 60 minute incubation times”; the “casein-digestion activity, protease in solution, fluorescence” value is given as “exhibited casein-digestion activity having linear reaction kinetics up to approximately 6 µg/ml of each protease”. In addition, in the series with Tau-441 (P301L), the “digestion on immobilized protease column, SDS-PAGE silver stain (FIG. 3A)” value was “rapidly degraded”; the “loss of the Tau-441 (P301L) band on a silver-stained SDS-PAGE gel after incubation on the protease column” value was “no band in the Cathepsin G column lanes at 2, 10 and 20 min; the No protease column lanes show a strong band of equal strength at 2, 10 and 20 min”.
